Laboratory results published in patent EP4705353A2 (dated 2026).

T1: full length human B7H3 expressed on CHOK1 cells (human, UniProt Q5ZPR3 29-534)
T1 construct: whole, on cells; also called B7H3/CHOK1; B7H3/CHOK1 full length; not shown: C-terminal flag and Myc tags from the pCMV6-Entry vector
T1 sequence (looked up): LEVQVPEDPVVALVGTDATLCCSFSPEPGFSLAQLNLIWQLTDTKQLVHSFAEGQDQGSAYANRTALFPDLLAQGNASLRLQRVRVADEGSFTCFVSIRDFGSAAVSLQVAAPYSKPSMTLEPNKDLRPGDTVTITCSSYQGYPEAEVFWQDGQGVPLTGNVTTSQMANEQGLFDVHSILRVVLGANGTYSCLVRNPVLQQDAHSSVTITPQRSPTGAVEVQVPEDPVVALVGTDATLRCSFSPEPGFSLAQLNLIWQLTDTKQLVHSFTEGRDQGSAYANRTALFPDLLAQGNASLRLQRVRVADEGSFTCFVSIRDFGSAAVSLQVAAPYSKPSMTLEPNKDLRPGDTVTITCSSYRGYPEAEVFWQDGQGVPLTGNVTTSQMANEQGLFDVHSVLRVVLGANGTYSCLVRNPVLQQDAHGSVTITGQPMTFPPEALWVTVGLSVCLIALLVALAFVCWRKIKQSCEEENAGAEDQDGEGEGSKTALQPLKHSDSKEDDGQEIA

T2: human B7H3-Fc recombinant protein (human, UniProt Q5ZPR3 29-466, limits assumed)
T2 construct: Recombinant Fc fusion; also called human B7H3-Fc (full length); B7H3 recombinant protein; not shown: Fc part
T2 sequence (looked up): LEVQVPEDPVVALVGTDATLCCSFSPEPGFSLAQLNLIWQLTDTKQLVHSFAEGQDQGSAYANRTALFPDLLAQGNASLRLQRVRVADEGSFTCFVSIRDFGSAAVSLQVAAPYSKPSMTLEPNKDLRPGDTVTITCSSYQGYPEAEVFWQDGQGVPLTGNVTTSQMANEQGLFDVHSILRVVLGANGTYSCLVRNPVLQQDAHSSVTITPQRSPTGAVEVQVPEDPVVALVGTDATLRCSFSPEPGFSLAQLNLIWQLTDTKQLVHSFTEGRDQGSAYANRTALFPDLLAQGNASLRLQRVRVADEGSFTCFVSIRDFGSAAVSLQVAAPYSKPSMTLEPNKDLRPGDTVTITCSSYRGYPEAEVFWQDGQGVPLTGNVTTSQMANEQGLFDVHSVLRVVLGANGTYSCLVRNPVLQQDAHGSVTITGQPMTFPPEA

B1: BH-01 anti-B7H3 VH antibody (VHH)
VHH: QVTLKESGPTVVNPTQTLTLTCTFSGFSLTTSPVGVGWLRQPPGQALEWLALIYWDDDKRYSPSLKSRLTITKNTSRNQVVLTMMNMDPVDTATYYCAHRVYYTGNWDGGSFDYWGQGTLVTVSS
notes: Human heavy chain-only (VH) antibody made in E. coli with a C-terminal flag and 6xHis tag; also called BH-1; not shown: C-terminal flag and 6xHis tag
B2: BH-03 anti-B7H3 VH antibody (VHH)
VH: QVQLVESGGGVVQPGRSPRLSCAASGFTFSSYAMHWVRQAPGKGLEWVAVISYDGSNKYYADSVKGRFTISRDNSKNTLYLQMNSLRAEDTAVYYCARDLARLVAGLDYWGQGTLVTVSS
notes: Human heavy chain-only (VH) antibody made in E. coli with a C-terminal flag and 6xHis tag; not shown: C-terminal flag and 6xHis tag

Columns and labels:
[1] = target: T1, full length human B7H3 expressed on …; experiment: FACS, VH titrated with or without 20 nM Enoblituzumab as competitor
[2] = target: T2, human B7H3-Fc recombinant protein; experiment: ELISA, human B7H3-Fc coated at 2 ug/mL, anti-Flag HRP detection; footnote of Table 5: NA: low binding to B7H3 protein

| Binder | binding result [1] | binding result [2] |
| --- | --- | --- |
| B1 | binds | – |
| B2 | binds | binds |
